Assay results as given in US20260176336A1 (MESTAG THERAPEUTICS, published 2026).

Experiments:
[1] = molecular target: T1, Biotinylated hLTBR-His-Avitag (Acro, cat no LTR-H82E9-25 µg) (human, UniProt P36941 31-227, biotinylated (Avitag)); test: BLI (Octet), biotinylated LTBR on SA sensor, antibody as analyte
T1 construct: bought protein loaded on SA Streptavidin biosensors
Description: Briefly, Biotinylated hLTBR-His-Avitag (Acro, cat no LTR-H82E9-25 μg) was loaded on SA Streptavidin biosensors (Fortebio) in kinetics buffer (ForteBio) followed by a 2-fold dilution series starting at 50 nM of FAP/LTBR bispecific antibodies. Binding kinetics were studied in a 1× Kinetics buffer where the association was allowed for 100 seconds, followed by dissociation for 300 seconds. Data generated were referenced by subtracting a parallel buffer blank, the baseline was aligned with the y-axis, inter-step correlation by alignment against dissociation was performed, and the data were smoothed by a Savitzky-Golay filter in the data analysis software. The processed data were fitted using a 1:1 Langmuir binding model with R\hat{ }2 as a measurement of fitting accuracy. The KD and R\hat{ }2 values can be found in.

[2] = molecular target: cynomologus recombinant LTBR (Octet, Example 4.8) (cynomolgus (Macaca fascicularis), UniProt P36941 31-227 (human entry), limits assumed); test: BLI (Octet), cyno LTBR immobilised on ARG sensor, antibody at 25 nM
cynomologus recombinant LTBR (Octet, Example 4.8), sequence (P36941 other isoform, or with tags, fused parts or gaps limits assumed): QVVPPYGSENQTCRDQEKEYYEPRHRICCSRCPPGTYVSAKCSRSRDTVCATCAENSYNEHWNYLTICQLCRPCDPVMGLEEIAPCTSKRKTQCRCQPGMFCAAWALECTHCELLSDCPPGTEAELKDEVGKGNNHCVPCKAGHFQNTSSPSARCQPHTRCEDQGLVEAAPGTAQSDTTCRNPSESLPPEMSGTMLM
Description: A 2-fold series dilution starting at 50 nM of cynomologus recombinant LTBR was immobilised on the surface of ARG biosensors (Fortebio), followed by FAP/LTBR bispecific at 25 nM. Binding kinetics were studied in a 1× Kinetics buffer where the association was allowed for 180 seconds, followed by dissociation for 100 seconds. Sensor tips were regenerated using ethylene glycol. Data generated were referenced by subtracting a parallel buffer blank, the baseline was aligned with the y-axis, inter-step correlation by alignment against dissociation was performed, and the data were smoothed by a Savitzky-Golay filter in the data analysis software. The processed data were fitted using a 1:1 Langmuir binding model with R\hat{ }2 as a measurement of fitting accuracy. The KD values can be found in.

[3] = molecular target: T2, human LTBR endogenously expressed on cells (HepG2, A549, A375, HCC1187, RPMI-7951, primary human breast CAFs) (human, UniProt P36941 31-435); test: cell-based or functional assay
T2 sequence (P36941 31-435): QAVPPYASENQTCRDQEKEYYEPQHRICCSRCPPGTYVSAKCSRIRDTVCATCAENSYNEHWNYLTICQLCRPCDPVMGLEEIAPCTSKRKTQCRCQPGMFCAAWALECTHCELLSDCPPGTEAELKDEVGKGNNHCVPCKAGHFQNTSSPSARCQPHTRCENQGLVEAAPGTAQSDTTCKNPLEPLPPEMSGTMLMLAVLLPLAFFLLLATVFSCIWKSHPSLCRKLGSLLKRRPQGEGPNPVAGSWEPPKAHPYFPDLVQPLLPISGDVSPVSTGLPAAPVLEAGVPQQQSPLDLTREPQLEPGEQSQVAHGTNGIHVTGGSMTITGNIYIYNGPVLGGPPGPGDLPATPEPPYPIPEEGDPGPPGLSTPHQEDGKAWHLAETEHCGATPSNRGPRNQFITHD

[4] = molecular target: T3, human FAP (Acro, cat no FAP-H82Q6) (human, UniProt Q12884 26-760); test: BLI (Octet), antibody captured by anti-Fc, FAP as analyte; * value outside instrument specifications
T3 construct: 'FAP is naturally a dimeric antigen'
Description: Binding to recombinant FAP proteins was investigated by Bio-Layer Interferometry (BLI) using the Octet instrument. Using standard amine coupling chemistry, an anti-Fc antibody was immobilised on the surface of ARG biosensors (Fortebio). The FAP/LTBR bispecific antibodies were loaded on the previously coated surface with anti-Fc capture antibody, followed by a 2-fold series dilution starting at 50 nM of either cyno FAP (Acro, cat no FAP-C82Q5) or human FAP (Acro, cat no FAP-H82Q6). Binding kinetics were studied in a 1× Kinetics buffer where the association was allowed for 200 seconds, followed by dissociation for 400 seconds. Sensor tips were regenerated using 10 mM Glycine pH 2.0. Data generated were referenced by subtracting a parallel buffer blank, the baseline was aligned with the y-axis, inter-step correlation by alignment against dissociation was performed, and the data were smoothed by a Savitzky-Golay filter in the data analysis software. The processed data were fitted using a 1:1 Langmuir binding model with R\hat{ }2 as a measurement of fitting accuracy. The Results are summarised in. Avidity was observed as FAP is naturally a dimeric antigen, and the limited detection by Octet with these molecules has been reached. Species cross-reactivity has been confirmed for all test samples.

[5] = molecular target: T2, human LTBR endogenously expressed on …; test: cell-based or functional assay; remark: listed apart in the source
[6] = molecular target: T2, human LTBR endogenously expressed on …; test: flow cytometry, A549 cells
Description: (§1) In short, 1×10⁶ cells were resuspended in the FACS buffer (1% BSA, 0.1% Sodium Azide in PBS), and 50 μl was added to each well (5×10⁴ cells/well) of a 96-U bottom plate. The cells were washed once and resuspended in 50 μl/well of FACS buffer containing a 1:3, 11-point series dilutions of constructs 4.1-4.6 and clones 4.8-4.9 followed by 1 h incubation at 4° C. […] Next, cells were washed and resuspended in FACS buffer and read on Beckman Coulter CytoFLEX. The data were analysed using FloJo V10 and GraphPad Prism v9. Clone 4.7 was tested for binding to A375 (LTBR positive cell line) and the HEK293-FAP overexpressing cell line, as described in examples 2.4 and 3.5. The EC50 values can be found in.

[7] = molecular target: T2, human LTBR endogenously expressed on …; test: cell-based or functional assay; remark: listed apart in the source
[8] = molecular target: T2, human LTBR endogenously expressed on …; test: cell-based or functional assay; remark: listed apart in the source
[9] = molecular target: T2, human LTBR endogenously expressed on …; test: cell-based or functional assay; remark: listed apart in the source
[10] = molecular target: T4, human FAP expressed on cells (transfected HEK293; FAP-CHO-K1 recombinant cell line, BPS cat no. 79947) (human, UniProt Q12884 1-760); test: flow cytometry, FAP-CHO-K1 cells
T4 construct: also called HuFAP-HEK293; Hek-FAP
Description: as §1

T1 sequence (P36941 31-227 limits assumed): as the sequence (P36941 other isoform, or with tags, fused parts or gaps limits assumed) above, with V2A, G7A, R24Q, S45I, D163N, R181K, S184L, S186P counted along it

Binder | Kd [1] [nM] | Kd [2] [nM] | ICAM1 upregulation in CAFs monoculture assay EC50 [3] [pM] | Kd [4] [nM] | chemokine (CCL5) induction in RPMI-7951 EC50 [5] [pM] | EC50 [6] [nM] | HepG2 Reporter assay, HepG2:FAP-CHO-K1 Co-culture EC50 [7] [pM] | CCL19 upregulation, HCC1187:CAF Co-culture EC50 [8] [pM] | HCC-1187:RPMI7951 (cis-activation) co-culture assay CCL5 read-out EC50 [9] [pM] | HCC-1187:RPMI7951 (trans-activation) co-culture assay, CCL19 Read-out EC50 [9] [pM] | EC50 [10] [nM]
Clone 4.3 (bispecific antibody, human IgG1, kappa, L234A L235A, FAP:LTBR 1:1 heterodimer of LTBR VHH (clone 1.6) paired with FAP Fab (clone 3.6), human IgG1 LALA) heavy 1: not shown heavy 2: QVQLVQSGAEVKKPGASVKVSCKASGYTFTGYYMHWVRQAPGQGLEWMGWIYPNTGGVNYAQNFQGRVTMTRDTSISTAYMELSRLRSDDTAVYYCARDDYNKNLDYWGQGTLVTVSSASTKGPSVFPLAPSSKSTSGGTAALGCLVKDYFPEPVTVSWNSGALTSGVHTFPAVLQSSGLYSLSSVVTVPSSSLGTQTYICNVNHKPSNTKVDKKVEPKSCDKTHTCPPCPAPEAAGGPSVFLFPPKPKDTLMISRTPEVTCVVVDVSHEDPEVKFNWYVDGVEVHNAKTKPREEQYNSTYRVVSVLTVLHQDWLNGKEYKCKVSNKALPAPIEKTISKAKGQPREPQVCTLPPSRDELTKNQVSLSCAVKGFYPSDIAVEWESNGQPENNYKTTPPVLDSDGSFFLVSKLTVDKSRWQQGNVFSCSVMHEALHNHYTQKSLSLSPG light: not shown | 3.1 | 5.78 | 40 | 0.192 | 100 | 6.9 | 60 | 90 | 120 | 110 | 0.8
Clone 4.6 (bispecific antibody, human IgG1, kappa, L234A L235A, FAP:LTBR 2:1 heterodimer of FAP mAb (clone 3.6) with C terminal fused LTBR VHH (clone 1.7), human IgG1 LALA) heavy 1: not shown heavy 2: QVQLVQSGAEVKKPGASVKVSCKASGYTFTGYYMHWVRQAPGQGLEWMGWIYPNTGGVNYAQNFQGRVTMTRDTSISTAYMELSRLRSDDTAVYYCARDDYNKNLDYWGQGTLVTVSSASTKGPSVFPLAPSSKSTSGGTAALGCLVKDYFPEPVTVSWNSGALTSGVHTFPAVLQSSGLYSLSSVVTVPSSSLGTQTYICNVNHKPSNTKVDKKVEPKSCDKTHTCPPCPAPEAAGGPSVFLFPPKPKDTLMISRTPEVTCVVVDVSHEDPEVKFNWYVDGVEVHNAKTKPREEQYNSTYRVVSVLTVLHQDWLNGKEYKCKVSNKALPAPIEKTISKAKGQPREPQVCTLPPSRDELTKNQVSLSCAVKGFYPSDIAVEWESNGQPENNYKTTPPVLDSDGSFFLVSKLTVDKSRWQQGNVFSCSVMHEALHNHYTQKSLSLSPG light: not shown | 4.3 | 17.1 | 10 | 0.0443 | 24 |  | 53 | 13 | 13 |  | 0.33
Clone 4.4 (bispecific antibody, human IgG1, kappa, L234A L235A, FAP:LTBR 2:1 heterodimer of FAP mAb (clone 3.6) with C terminal fused LTBR VHH (clone 1.6), human IgG1 LALA) heavy 1: not shown heavy 2: QVQLVQSGAEVKKPGASVKVSCKASGYTFTGYYMHWVRQAPGQGLEWMGWIYPNTGGVNYAQNFQGRVTMTRDTSISTAYMELSRLRSDDTAVYYCARDDYNKNLDYWGQGTLVTVSSASTKGPSVFPLAPSSKSTSGGTAALGCLVKDYFPEPVTVSWNSGALTSGVHTFPAVLQSSGLYSLSSVVTVPSSSLGTQTYICNVNHKPSNTKVDKKVEPKSCDKTHTCPPCPAPEAAGGPSVFLFPPKPKDTLMISRTPEVTCVVVDVSHEDPEVKFNWYVDGVEVHNAKTKPREEQYNSTYRVVSVLTVLHQDWLNGKEYKCKVSNKALPAPIEKTISKAKGQPREPQVCTLPPSRDELTKNQVSLSCAVKGFYPSDIAVEWESNGQPENNYKTTPPVLDSDGSFFLVSKLTVDKSRWQQGNVFSCSVMHEALHNHYTQKSLSLSPG light: not shown | 4.6 | 8.3 | 4.8 | 0.231 | 28 | 45 | 31 | 54 | 12 |  | 0.2
Clone 4.2 (bispecific antibody, human IgG1, kappa, L234A L235A, FAP:LTBR 1:1 heterodimer of LTBR VHH (clone 1.7) paired with FAP Fab (clone 3.5), human IgG1 LALA) heavy 1: not shown heavy 2: QLQLQESGPGLVKPSETLSLTCTVSGGSISSSTYYWGWIRQPPGKGLEWIGSIFYSGNTYYNPSLKSRVTISVDTSKNHFSLKLSSVTAADTAVYYCAREIIEPRPGYFDYWGQGTLVTVSSASTKGPSVFPLAPSSKSTSGGTAALGCLVKDYFPEPVTVSWNSGALTSGVHTFPAVLQSSGLYSLSSVVTVPSSSLGTQTYICNVNHKPSNTKVDKKVEPKSCDKTHTCPPCPAPEAAGGPSVFLFPPKPKDTLMISRTPEVTCVVVDVSHEDPEVKFNWYVDGVEVHNAKTKPREEQYNSTYRVVSVLTVLHQDWLNGKEYKCKVSNKALPAPIEKTISKAKGQPREPQVCTLPPSRDELTKNQVSLSCAVKGFYPSDIAVEWESNGQPENNYKTTPPVLDSDGSFFLVSKLTVDKSRWQQGNVFSCSVMHEALHNHYTQKSLSLSPG light: not shown | 3.2 | 6.75 | 19 | 0.325 | 63 | 3.2 | 30 | 60 | 110 | 160 | 0.47
Clone 4.5 (bispecific antibody, human IgG1, kappa, L234A L235A, FAP:LTBR 2:1 heterodimer of FAP mAb (clone 3.5) with C terminal fused LTBR VHH (clone 1.6), human IgG1 LALA) heavy 1: not shown heavy 2: QLQLQESGPGLVKPSETLSLTCTVSGGSISSSTYYWGWIRQPPGKGLEWIGSIFYSGNTYYNPSLKSRVTISVDTSKNHFSLKLSSVTAADTAVYYCAREIIEPRPGYFDYWGQGTLVTVSSASTKGPSVFPLAPSSKSTSGGTAALGCLVKDYFPEPVTVSWNSGALTSGVHTFPAVLQSSGLYSLSSVVTVPSSSLGTQTYICNVNHKPSNTKVDKKVEPKSCDKTHTCPPCPAPEAAGGPSVFLFPPKPKDTLMISRTPEVTCVVVDVSHEDPEVKFNWYVDGVEVHNAKTKPREEQYNSTYRVVSVLTVLHQDWLNGKEYKCKVSNKALPAPIEKTISKAKGQPREPQVCTLPPSRDELTKNQVSLSCAVKGFYPSDIAVEWESNGQPENNYKTTPPVLDSDGSFFLVSKLTVDKSRWQQGNVFSCSVMHEALHNHYTQKSLSLSPG light: not shown | 6.5 | 5.22 | 11 | 0.1 | 18 | 29 | 40 | 23 | 12 |  | 0.11
